Test results: patent US20230272045A1

Columns and labels:
[1] = molecular target: human vitronectin (human) (UniProt P04004); assay: ELISA
[2] = molecular target: human tenascin C (human) (UniProt P24821); assay: ELISA
[3] = molecular target: human plasma fibronectin (human) (UniProt P02751); assay: ELISA
[4] = molecular target: fibrin matrix (UniProt P02671); assay: cell-based or functional assay
fibrin matrix, sequence (P02671 other isoform, or with tags, fused parts or gaps, chain 1 of 3): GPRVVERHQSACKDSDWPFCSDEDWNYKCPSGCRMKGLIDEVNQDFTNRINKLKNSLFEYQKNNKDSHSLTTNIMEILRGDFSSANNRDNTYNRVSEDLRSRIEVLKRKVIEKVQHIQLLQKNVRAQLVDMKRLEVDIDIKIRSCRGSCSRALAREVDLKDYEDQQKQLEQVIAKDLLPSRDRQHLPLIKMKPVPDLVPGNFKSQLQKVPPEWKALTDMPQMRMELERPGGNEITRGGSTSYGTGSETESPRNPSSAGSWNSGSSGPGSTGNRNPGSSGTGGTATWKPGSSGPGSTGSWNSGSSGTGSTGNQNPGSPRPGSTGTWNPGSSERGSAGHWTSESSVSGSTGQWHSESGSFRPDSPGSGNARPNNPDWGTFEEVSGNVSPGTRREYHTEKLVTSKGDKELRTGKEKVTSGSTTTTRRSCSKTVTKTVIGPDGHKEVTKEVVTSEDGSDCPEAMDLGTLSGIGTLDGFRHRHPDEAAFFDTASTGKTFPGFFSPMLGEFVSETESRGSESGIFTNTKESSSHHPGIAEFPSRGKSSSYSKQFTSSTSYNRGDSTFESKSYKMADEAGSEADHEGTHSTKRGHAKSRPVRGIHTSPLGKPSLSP
fibrin matrix, sequence (P02675 45-491, chain 2 of 3, further chain): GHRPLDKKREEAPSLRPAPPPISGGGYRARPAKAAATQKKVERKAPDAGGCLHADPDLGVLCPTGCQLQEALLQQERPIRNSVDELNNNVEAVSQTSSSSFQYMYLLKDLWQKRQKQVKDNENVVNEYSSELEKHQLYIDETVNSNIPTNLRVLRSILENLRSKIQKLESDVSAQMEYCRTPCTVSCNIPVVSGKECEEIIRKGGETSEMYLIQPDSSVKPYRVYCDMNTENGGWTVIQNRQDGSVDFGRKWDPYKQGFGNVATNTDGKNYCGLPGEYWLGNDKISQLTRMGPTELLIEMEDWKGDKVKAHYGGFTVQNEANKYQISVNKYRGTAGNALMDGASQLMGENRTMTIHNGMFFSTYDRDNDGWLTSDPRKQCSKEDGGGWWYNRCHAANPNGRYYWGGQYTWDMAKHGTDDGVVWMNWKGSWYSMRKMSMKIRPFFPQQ
fibrin matrix, sequence (P02679 other isoform, or with tags, fused parts or gaps, chain 3 of 3, further chain): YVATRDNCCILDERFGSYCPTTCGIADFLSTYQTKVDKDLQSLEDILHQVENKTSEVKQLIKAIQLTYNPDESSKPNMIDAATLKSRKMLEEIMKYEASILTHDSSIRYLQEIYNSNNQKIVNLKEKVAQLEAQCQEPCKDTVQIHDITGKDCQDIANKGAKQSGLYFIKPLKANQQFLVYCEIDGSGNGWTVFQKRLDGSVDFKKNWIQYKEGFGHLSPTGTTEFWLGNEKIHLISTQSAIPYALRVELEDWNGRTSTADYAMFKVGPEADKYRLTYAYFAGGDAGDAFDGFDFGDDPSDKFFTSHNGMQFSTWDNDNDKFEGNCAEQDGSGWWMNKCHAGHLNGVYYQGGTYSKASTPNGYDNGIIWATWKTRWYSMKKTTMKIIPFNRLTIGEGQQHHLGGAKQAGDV

human tenascin C (human), sequence (P24821 23-2201): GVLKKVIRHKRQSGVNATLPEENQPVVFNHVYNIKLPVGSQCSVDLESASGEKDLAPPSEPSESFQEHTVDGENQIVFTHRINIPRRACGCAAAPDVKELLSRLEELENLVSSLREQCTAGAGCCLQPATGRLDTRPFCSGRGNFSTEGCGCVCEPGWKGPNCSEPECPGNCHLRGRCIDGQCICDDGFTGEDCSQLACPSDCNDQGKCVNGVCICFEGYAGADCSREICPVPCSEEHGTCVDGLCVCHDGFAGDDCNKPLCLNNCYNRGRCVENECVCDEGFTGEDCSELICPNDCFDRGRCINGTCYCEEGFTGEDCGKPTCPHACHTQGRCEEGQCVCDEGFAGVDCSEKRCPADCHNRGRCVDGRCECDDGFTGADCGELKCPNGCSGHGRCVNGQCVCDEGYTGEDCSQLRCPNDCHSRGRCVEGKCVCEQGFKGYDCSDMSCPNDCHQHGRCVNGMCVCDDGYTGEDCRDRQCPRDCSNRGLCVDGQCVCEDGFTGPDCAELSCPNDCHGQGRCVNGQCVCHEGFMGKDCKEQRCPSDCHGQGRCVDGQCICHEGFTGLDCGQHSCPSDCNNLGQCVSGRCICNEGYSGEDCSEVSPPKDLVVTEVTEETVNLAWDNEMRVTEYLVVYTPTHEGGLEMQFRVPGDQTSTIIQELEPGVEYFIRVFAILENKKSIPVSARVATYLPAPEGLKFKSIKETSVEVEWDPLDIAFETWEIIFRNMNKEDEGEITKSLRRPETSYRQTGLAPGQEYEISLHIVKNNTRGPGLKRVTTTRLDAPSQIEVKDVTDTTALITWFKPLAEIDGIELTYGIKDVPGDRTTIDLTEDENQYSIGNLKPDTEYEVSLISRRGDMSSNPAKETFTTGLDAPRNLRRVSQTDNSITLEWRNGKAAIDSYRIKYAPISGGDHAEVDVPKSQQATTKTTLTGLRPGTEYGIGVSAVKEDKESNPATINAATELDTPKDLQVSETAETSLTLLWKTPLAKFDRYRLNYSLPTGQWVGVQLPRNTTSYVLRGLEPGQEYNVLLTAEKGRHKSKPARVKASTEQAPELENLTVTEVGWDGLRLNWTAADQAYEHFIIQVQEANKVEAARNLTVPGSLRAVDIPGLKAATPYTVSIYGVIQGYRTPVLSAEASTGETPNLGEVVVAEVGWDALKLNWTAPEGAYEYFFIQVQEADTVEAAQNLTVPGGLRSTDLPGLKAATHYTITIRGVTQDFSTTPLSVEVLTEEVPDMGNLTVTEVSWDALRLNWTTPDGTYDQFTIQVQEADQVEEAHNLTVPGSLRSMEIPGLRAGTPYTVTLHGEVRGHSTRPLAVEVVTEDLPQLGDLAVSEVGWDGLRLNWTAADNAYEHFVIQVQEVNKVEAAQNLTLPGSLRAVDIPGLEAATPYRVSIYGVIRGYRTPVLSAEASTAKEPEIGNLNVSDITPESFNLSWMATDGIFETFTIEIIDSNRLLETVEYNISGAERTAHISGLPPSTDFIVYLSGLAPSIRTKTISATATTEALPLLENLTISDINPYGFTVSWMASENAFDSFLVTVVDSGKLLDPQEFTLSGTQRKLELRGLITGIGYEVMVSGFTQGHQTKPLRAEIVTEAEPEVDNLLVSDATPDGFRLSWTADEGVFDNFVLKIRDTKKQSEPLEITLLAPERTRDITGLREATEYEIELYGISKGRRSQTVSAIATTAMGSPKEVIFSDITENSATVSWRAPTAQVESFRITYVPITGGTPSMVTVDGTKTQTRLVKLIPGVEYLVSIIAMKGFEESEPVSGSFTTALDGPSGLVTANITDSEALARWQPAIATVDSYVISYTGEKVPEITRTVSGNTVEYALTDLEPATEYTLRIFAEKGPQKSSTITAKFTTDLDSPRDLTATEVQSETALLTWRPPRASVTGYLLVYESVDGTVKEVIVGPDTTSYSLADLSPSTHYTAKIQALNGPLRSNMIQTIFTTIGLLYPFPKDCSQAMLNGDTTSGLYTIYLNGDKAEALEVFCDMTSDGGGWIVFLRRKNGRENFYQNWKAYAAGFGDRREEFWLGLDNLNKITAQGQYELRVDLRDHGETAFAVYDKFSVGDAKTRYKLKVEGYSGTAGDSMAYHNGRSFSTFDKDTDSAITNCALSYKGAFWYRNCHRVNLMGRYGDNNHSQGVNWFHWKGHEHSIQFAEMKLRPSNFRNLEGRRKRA
human vitronectin (human), sequence (P04004 20-478): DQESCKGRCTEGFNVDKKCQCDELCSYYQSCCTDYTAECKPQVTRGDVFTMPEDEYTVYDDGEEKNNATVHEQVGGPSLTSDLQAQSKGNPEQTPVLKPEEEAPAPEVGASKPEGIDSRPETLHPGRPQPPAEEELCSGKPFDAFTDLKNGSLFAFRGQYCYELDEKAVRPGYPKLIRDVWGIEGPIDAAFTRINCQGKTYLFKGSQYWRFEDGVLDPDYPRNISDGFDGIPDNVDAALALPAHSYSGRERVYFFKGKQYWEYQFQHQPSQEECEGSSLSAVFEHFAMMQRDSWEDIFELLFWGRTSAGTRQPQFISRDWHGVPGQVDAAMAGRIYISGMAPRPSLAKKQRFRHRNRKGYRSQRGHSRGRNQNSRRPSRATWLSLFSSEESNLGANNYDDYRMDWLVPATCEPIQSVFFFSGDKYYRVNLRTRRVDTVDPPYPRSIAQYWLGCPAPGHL

AREG126-138/PDGF-BB (from UniProt P31240 80-190)
Kd [1]: 1.9 nM
Kd [2]: 18.1 nM
Kd [3]: 7.9 nM

PIGF-1 (from UniProt P49763 19-149) (ligand)
release from a fibrin matrix (fraction of the protein dose released) [4]: > 60%
